The target of the experiment is T1, Recombinant human IgG1 Fc (hFc) (human, UniProt P01857-1 100-330 = IgG part).
T1 construct: domain: Fc; Bought reagent; also called Recombinant Human IgG Fc
Put plainly: sandwich ELISA: hEDAR-mFc coated, anti-human IgG (Fc) CH2-HRP detection. As to the method: For validation, ELISA plates (96-well Microtiter Plates, Nunc 96F Maxisorp (Thermo Fisher, Pittsburgh, Pa.)) were coated with 1 μg/mL hEDARmFc coating solution. For the binding step, standards, QCs, Blank (assay buffer alone), and other required samples were added to the appropriate wells of an assay plate. Plates were incubated for approximately 120 minutes and then washed. For the detection step, the detection reagent was added to each required well and the plate was incubated for approximately 60 minutes and then washed. For the substrate step, Ultra TMB (1-Step Ultra TMB-ELISA Substrate (Thermo Scientific, Pittsburgh, Pa.)) was added to each well and the plate was incubated for approximately 20 to 30 minutes. Color development was monitored at 650 nm so that development could be discontinued when the OD of the 250 ng/mL standard was between 1.3 and 1.4. To stop the color reaction, 2N sulfuric acid was added to each well. The OD at 450 nm was determined with the correction wavelength set at 540 nm.
(An ELISA detects its analyte on a solid surface through an enzyme-linked reagent.)

B1: hEDAR-mFc (Fc fusion, human, UniProt Q9UNE0 27-183, looked up)
chain: EYSNCGENEYYNQTTGLCQECPPCGPGEEPYLSCGYGTKDEDYGCVPCPAEKFSKGGYQICRRHKDCEGFFRATVLTPGDMENDAECGPCLPGYYMLENRPRNIYGMVCYSCLLAPPNTKECVGATSGASANFPGTSGSSTLSPFQHAHKELSGQGH
notes: Capture reagent from Edimer Pharmaceuticals, coated at 1 µg/mL; also called capture reagent; not shown: mouse Fc (mFc)
On to B1, for which the binding result is given as “no binding (tested: 100 ng/mL)”.

Source of the values: patent US20160272694A1 (EDIMER PHARMACEUTICALS, published 2016).
